From the supplement of paper PMC11865577

Assays:
Assay in all cases: pull-down binding Z-score (relative to library population); higher = stronger binding
[1] = test system: TO-N3 (biotin conjugate); details: RNA library: Library-2
Method in brief: (§1)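 A heat-folded, dye-end-labelled (Cy5 or Cy3) RNA library (1 μg, phosphate/NaCl/KCl buffer) was exposed for 60 min at 25 °C to streptavidin beads holding 100 pmol of biotin-conjugated small molecule. RNA retained on the beads was eluted in hot SDS and hybridised to a DNA barcode microarray for 20 h at 55.5 °C. Binding scores were Z-scores against the library mean and standard deviation, calculated after subtracting beads alone and taking trimmed means of replicate probes.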

[2] = test system: TO-3-N3 (biotin conjugate); details: RNA library: Library-2
Method in brief: as §1

[3] = test system: TO-N3-2 (biotin conjugate); details: RNA library: Library-2
Method in brief: as §1

[4] = test system: TO-3-N3-2 (biotin conjugate); details: RNA library: Library-2
Method in brief: as §1

[5] = test system: G-clamp-N3 (biotin conjugate); details: RNA library: Library-1 (pre-miRNA loops + repeats)
Method in brief: as §1

| Sequence | pull-down binding Z-score [1] | pull-down binding Z-score [2] | pull-down binding Z-score [3] | pull-down binding Z-score [4] | pull-down binding Z-score [5] |
| --- | --- | --- | --- | --- | --- |
| CUUCGCGCUAGUUUGUUUGUGUUAAG [hsa-mir-6077] | -0.0943 | -0.0696 | -0.426 | 0.0164 | -0.639 |
| CUUCGGUAUUCAUCAAAAAUACCAAAG [hsa-mir-4735] | -1.08 | -0.683 | -1.52 | -0.63 | -0.293 |
| CUUCUGCUUCCUCUUAGCGCAGGAG [hsa-mir-1914] | -0.751 | -0.591 | -0.409 | -0.325 | -1.66 |
| CUUCUUACUGCACCAGUGAAG [hsa-mir-5683] | -0.0796 | -0.186 | 0.131 | -0.268 | -1.53 |
| CUUGAUUUAAAUGUCCAUACAAUUAAG [hsa-mir-124-1] | -0.179 | -0.0597 | -0.133 | -0.142 | -0.57 |
| CUUGAUUUAAUGUCAUACAAUUAAG [hsa-mir-124-2] | -0.928 | -0.687 | -0.734 | -0.157 | -0.895 |
| CUUGAUUUAAUGUCUAUACAAUUAAG [hsa-mir-124-3] | -0.159 | -0.0185 | -0.45 | -0.0577 | -0.412 |
| CUUGCAGAAUUAAUGGAAUGCUG [hsa-mir-676] | 0.41 | 0.253 | 0.28 | 0.0539 | -1.73 |
| CUUGCGGGGCCUUCGCCGCACACAAG [hsa-mir-99b] | 0.328 | 0.198 | 0.595 | -0.148 | 1.51 |
| CUUGCUGUGACAUGACAAAAAUAAG [hsa-mir-302d] | 0.357 | 0.449 | -0.107 | 0.294 | -0.853 |
| CUUGCUUUGAAACUAAAGAAGUAAG [hsa-mir-302a] | -0.193 | -0.0041 | -0.319 | -0.131 | 0.749 |
| CUUGGCACCUUUGGCCUUAG [hsa-mir-4540] | 0.112 | 0.0499 | -0.0687 | -0.125 | 0.795 |
| CUUGGCUUCAAUUUACUCCCAGG [hsa-mir-4446] | 0.101 | 0.257 | 0.323 | -0.0843 | -1.06 |
| CUUGGGCCCAUUCCUUUCCUUACCCUAC [hsa-mir-6798] | 0.541 | 0.268 | 0.758 | 0.218 | -1.1 |
| CUUGUGGUAUUAGUCCGCACAAG [hsa-mir-100] | 0.334 | 0.418 | -0.096 | -0.161 | 1.17 |
| CUUGUGGUGAAGUGGACCGCACAAG [hsa-mir-99a] | -0.0222 | -0.203 | 1 | 0.00618 | 1.24 |
| CUUUAGCUAUUCUGAAUGCCUAAAG [hsa-mir-4662a] | -0.375 | -0.298 | -0.393 | -0.236 | -0.469 |
| CUUUAGGCAUUCAGAAUAGCUAAAG [hsa-mir-4662b] | -0.472 | -0.451 | -0.263 | -0.212 | -0.994 |
| CUUUCCUCAGCUGAUUUCUUUCUGGGGAGAG [hsa-mir-5186] | -0.52 | -0.144 | -1.08 | -0.279 | -0.72 |

| Sequence | pull-down binding Z-score [1] | pull-down binding Z-score [2] | pull-down binding Z-score [3] | pull-down binding Z-score [4] | pull-down binding Z-score [5] |
| --- | --- | --- | --- | --- | --- |
| CUUUCCUUUUUGUCUGUACUGGGAAG [hsa-mir-373] | -0.709 | -0.365 | -1.12 | -0.328 | 0.709 |
| CUUUCUGUGACUUUAAAAGUAAG [hsa-mir-302b] | -0.844 | -0.538 | -0.999 | -0.355 | -0.444 |
| CUUUCUGUUGGCUAAAAGAAAAGAAAG [hsa-mir-518e] | -0.366 | -0.396 | 0.0576 | 0.129 | 1.11 |
| CUUUCUGUUGUCUAAAAGAAAAGAAAG [hsa-mir-520d] | -0.415 | -0.444 | -0.127 | -0.331 | 0.0447 |
| CUUUCUGUUGUCUAAAAGAAAAGAACG [hsa-mir-521-1] | -0.124 | -0.211 | 0.0505 | 0.0499 | 0.795 |
| CUUUCUGUUGUCUGAAAGAAAAGAAAA [hsa-mir-522] | 0.617 | -0.109 | 0.775 | 0.118 | -0.228 |
| CUUUCUGUUGUCUGAAAGAAAAGAAAG [hsa-mir-520c_520b_519c_519b] | 0.458 | 0.176 | 0.38 | 0.102 | 0.44 |
| CUUUCUGUUGUCUGAAAGAAAGGAAAG [hsa-mir-519a-1_519a-2] | -0.572 | -0.467 | -0.239 | -0.315 | -0.55 |
| CUUUCUGUUGUCUGAGAGAAAAGAAAG [hsa-mir-520a] | -0.74 | -0.684 | -0.553 | -0.385 | 0.6 |
| CUUUGCUACUGCUC [hsa-mir-6072] | -0.000442 | -0.202 | 0.112 | -0.0975 | -0.385 |
| CUUUGGUGGCUAUGGUUGACUGGGCCACUCAGAG [hsa-mir-4468] | -0.123 | -0.366 | 0.846 | -0.332 | 2.29 |
| CUUUGUCAUUAAAACCAAUAACAAAA [hsa-mir-548ap] | 0.0976 | 0.331 | -0.638 | 0.223 | -0.92 |
| CUUUGUCUGACUACAAUAUUCAAAAG [hsa-mir-4426] | -0.0832 | 0.0486 | -0.569 | 0.0275 | -1.96 |
| CUUUGUGAUUUUAUGAGAACAAAG [hsa-mir-3173] | -1.22 | -0.938 | -1.27 | -0.486 | 0.801 |
| CUUUUAGAGUAAUUGUGAAACUGUUUUUCAAAG [hsa-mir-562] | -0.769 | -0.531 | -0.462 | -0.0695 | 0.748 |
| CUUUUAUAUCAAGGCACAUAAAAG [hsa-mir-3910-1] | -0.626 | -0.493 | -1.17 | -0.271 | -1.7 |
| CUUUUAUGUGCCUUGAUAUAAAAG [hsa-mir-3910-2] | -0.644 | -0.556 | -0.682 | -0.297 | -0.124 |
| CUUUUGGAAAAUAGAAAAG [hsa-mir-3184] | -0.433 | -0.24 | -0.0491 | 0.161 | 1.56 |
